Test results: patent US6514942B1, “Methods and compositions for stimulating T-lymphocytes” (The Board of Regents, The University of Texas System, priority 1995, dated 2003)

Assays:
[1] = biological target: T1, HLA-A2 on indicator T2 cells (Homo sapiens, UniProt P04439, D140Y/D185E/D98H/E176V/E277Q/G131W/G231S/I119V/I121R/I166T/I218V/L300P/L318F/N151K/N90K/P208A/P217A/Q86G/Q94H/R138H/R169H/T345S); test: Stabilization of HLA-A2 expression on indicator line T2; assay type: cell-based
T1 construct: cell surface expression of HLA-A2 is lower (30-40%) than in normal LBL lines transfected with HLA-A2; endogenous in cells; host or cells: T2 (transport deletion mutant) human lymphoblastoid cells, obtained from Dr. Peter Creswell
Source text: Since HER-2 is a self-antigen, during thymic selection, a number of T-cells carrying receptors with high affinity for the HLA-peptide complex are silenced either by elimination ro tolerization. A pre-condition for induction of a high affinity TCR-(MHC+peptide) interactions, is a stable (MHC+peptide) complex. […] However, stabilization of HLA-Class I binding by exogenously added peptide is dependent on introduction of dominant anchors in positions P2 and P9 which are not recognized by TCR.
Peptide D113, […] (SEQ ID NO:17), is the natural nonapeptide […].

[2] = tested on: C84 reactive CTL; test: Recognition by C84 reactive CTL; assay type: cell-based, human
Source text: The analogs with sequences C91=[…], (SEQ ID NO:4) and C92=[…] (SEQ ID NO:3) are also compositions of the present invention. In addition, substitutions at P4 (S→K) and P6 (F→V) affect residues that are expected to interact with TCR. […] Both C81 and C82 can form the core for antagonists of HER-2 reactive CTLs (to control and stop CTL reactions), and as such represent the first “universal” antagonists reported for stimulating CTLs.

HLA-A2 binding [1]: binds HLA-A2
Sequence: ELVKEVSKV [Peptide C82, C85 analog with P4 (S→K) and P6 (F→V) substitutions]
recognition by C84 reactive CTL [2]: no longer recognized by C84 reactive CTL
